Target: Jurkat-M663, Jurkat-M665 and Jurkat-M666 (ISD-modified BCMA CARs M663, M665, M666)
Test: cell-based or functional assay

Row | Binder | relative ISD-modified CAR positive rate (FACS), days 6, 7 and 8
1 | wildtype SIV Nef, Q02840 1-223 (protein) MGSSNSKRQQQGLLKLWRGLRGKPGADWVLLSDPLIGQSSTVQEECGKALKKSWGKGKMTPDGRRLQEGDTFDEWDDDEEEVGFPVQPRVPLRQMTYKLAVDFSHFLKSKGGLDGIYYSERREKILNLYALNEWGIIDDWQAYSPGPGIRYPRVFGFCFKLVPVDLHEEARNCERHCLMHPAQMGEDPDGIDHGEVLVWKFDPKLAVEYRPDMFKDMHEHAKR | 41.2 to 69.8%
2 | SIV Nef M116, Q02840 1-223 (protein) MGSSNSKRQQQGLLKLWRGLRGKPGADWVLLSDPLIGQSSTVQEECGKALKKSWGKGKMTPDGRRLQEGDTFDEWDDDEEEVGFPVQPRVPLRQMTYKLAVDFSHFLKSKGGLDGIYYSERREKILNLYALNEWGIIDDWQAYSPGPGIRYPRVFGFCFKLVPVDLHEEARNCERHCAAHPAQMGEDPDGIDHGEVLVWKFDPKLAVEYRPDMFKDMHEHAKR | 44.6 to 64.9%
